According to patent US20260258115A1:
Where a chain is given by its changes, count along the chain named.

B1: ADI-41159 (antibody, V domains shown)
VH: EVQLVESGAEVKKPGESLKISCKGSGYSFTTYWIGWVRQMPGKGLEWMGIMYPGDSQTRYSPSFQGQVTISADKSISTAYLQWSSLKASDTAMYYCARGGYCSGGSCYRGLDYWGQGTLVTVSS
VL: EIVMTQSPSSLSASVGDRVTITCRASQSISSFLNWYQQKPGKAPNLLIYAASSLLSGVPSRFSGSGSGTDFTLTISSLQPEDFATYYCQQSHSTPQTFGQGTKLEIK
B2: ADI-41156 (antibody, V domains shown)
VH: QVQLVQSGGGLVQPGGSLRLSCVASGFIFSSYEMNWVRQAPGKGLEWVSYISSSGSTIYYADSVKGRFTISRDNAKNSLYLQMNSLGAEDTAVYYCARAILYFDYWGQGTLVTVSS
VL: GIRLTQSPSSLSASVGDRVTITCRASQSITNYINWYQQKPGKAPKLLIYAISRLQSGVPSRFSGSGSGTDFTLTISSLQPEDFATYYCQQSYSTMYTFGQGTKVEIK
B3: ADI-41174 (antibody, V domains shown)
VH: EVQLVESGAEVEKPGASVKVSCKASGYTFINYDIIWVRQAPGQGLEWMGWISGYKGNTNYAQKLQGRITMSTDTSTRTAYMELRSLTSDDTAVYYCARVGGTARSTTPYYYGMDVWGQGTTVTVSS
VL: SYVLTQPPSVSVSPGQTARITCSGDAVPKQFSYWYQQKPGQAPVLVIYKDIERPSGIPERFSGSSSGTTVTLTISGVQAEDEADYYCQSAHTSGTYHVFGTGTKLTVL
B4: ADI-41164 (antibody, V domains shown)
VH: QVQLVQSGGDLVQPGGSLRLSCAASGFTFSDYEVNWVRQAPGKGLEWLSYISSSGRIIHYADSVRGRFTISRDNAKNSLYLQMNSLRAEDTAVYYCARAAGQWLVTYYYYGMDVWGQGTTVTVSS
VL: QSVMTQSPSTLSASVGDTVTITCRASQSIINRLAWYQQKPGKPPKLLIYKSSSSESGVPSKFSGSGSGTEFTLTINSLQPDDFATYYCQHYNSYLYTFGQGTKVEIK
B5: ADI-41347 (antibody, V domains shown)
VH: EVQLVESGPGLVKPSGTLSLTCAVSGGSVSSDNWWSWVRQPPGKGIEWIGEIYPSGGTNYNPSLNSRVTISVDKSKNQFSLKLNSVTAADTAIYYCARAPFDSSGYHSNSVWGQGTLVTVSS
VL: ETTLTQSPLSLPVTPGEPASISCRSSQSLLHSNGHNYLDWYVQKPGQSPQLLIYLSSNRASGVPDRFSGSGSGTDFTLRISRVEAEDVGVYYCMQPLQTPQTFGQGTKVEIK
B6: ADI-41314 (antibody, V domains shown)
VH: QVQLVQSGAEVKKPGSSVKVSCKAFGGIFSSYAISWVRQAPGQGLEWMGGIIPIFGTTKYAQKFQGRVTITADKSTSTVYMEVSSLRFEESAVYFCARAYCSGGTWYGGADYWGQGTLVTVSS
VL: QSVLTQPPSVSVSPGQTARITCSGDVLPKQYAYWYQQKPGQAPLLVMYKDTERPSGIPERFSGSSSVTAVTLTISGVQAEDEADYYCQSADSTQELFGGGTKLTVL
B7: ADI-41341 (antibody, V domains shown)
VH: QVQLVQSGAEVKKPGSSVKVSCKASGGTFSSYATHWVRQAPGQGLEWMGGIIPIFGRATYAQKFQGRVTISADESTSTAYMELSSLRSEDTAVYYCARGRDDRSGDHIAFLYHYGMDVWGQGSTVTVSS
VL: QSVLTQPPSVSAAPGQKVSISCSGSSSNIGINHASWYQHLPGTAPKLLIYDNNKRPSGIPDRFSGSKSGTSATLGISGLQTGDEAAYYCGTWDTGLSAVVFGGGTKLTVL
B8: ADI-41342 (antibody, V domains shown)
VH: QVQLVQSGAEVKKPGSSVKVSCKASGGTLTSYGVSWVRQAPGQGLEWMGGIIPIFGTVDYAQKFQGRVTITADEPTSTAYMELSSLTSDDTAVYYCARDPWVSGPVEFYYYFDVWGRGTLVTVSS
VL: DIVLTESPATLSLSPGERATLSCRASQSINNRYLAWYQQKPGQAPRLLIFGASSRATGIPDRFSGSGSGTDFTLTISRLEPEDFAVYYCQQYGSTPPTFGQGTKVEIK
B9: ADI-41324 (antibody, V domains shown)
VH: EVQLVESGGGLVQPGGSLRLSCAASGFTVSNNYMRWVRQAPGKGLEWVSVIYSSGSTDYADSVKGRFTISRDNSKNTLYLQMNSLRAEDTAVYYCARERTLFYYDSSGFFDYWGQGTLVTVSS
VL: ETTLTQSPGTLSLSPGERATLSCRASQSVDSSYLAWYQQKPGQAPRLLIYGASNRATGIPDRFSGSGSGTDFTLTISRLEPEDFAVYYCQQYGRSLTFGGGTKLEIK
B10: ADI-41323 (antibody, V domains shown)
VH: EVQLLESGGGVVRPGGSLRLSCAASGFTFDDYAMGWVRQAPGKGLEWVSGITWNAGSTAYAGSVKGRFTISRDNAKNSLFLQMNSLRAEDTAFYLCARHVDSSGPVARHFDYWGQGTLVTVSS
VL: NFMLTQPHSVSESPGKTVTISCTRSSGSIARNYVQWYQQRPGSAPTIVIYEDNQRPSGVPDRFSGSIDSSSNSASLTISGLKTEDEADYYCQSYDPSNVVFGGGTKLTVL
B11: ADI-41345 (antibody, V domains shown)
VH: EVQLVQSGAEVRKPGESLKISCKGSGYNFASYWIAWVRQMPGKGLEWMGIIFPGDSDTRYSPSFQGQVTISVDKSISTAYLQWSSLKASDTAIYYCATSKYTFGYLDWGQGTLVTVSS
VL: B10 VL with R31S, I47T, P96T, V99Q, G103T, L107V
B12: ADI-41346 (antibody, V domains shown)
VH: QVQLVQSGPEVKKPGESLKISCTLSASGLTTYWIGWVRQMPAKGLEWMGIIFPGDSDTRYSPSFQGQVTISADKSTNTAYLQWSGLKASDTAIYYCATLQTPVTGLDQWGQGTLVTVSS
VL: B10 VL with S28N, N32S, I47T, Y50H, N53D, S69T, V99Y, G103T, L107V
B13: ADI-41316 (antibody, V domains shown)
VH: QVQLVQSGGGVVQPGRSLRLSCAASGFTFNNYGMHWVRQAPGKGLEWVAVLSFDGINKYYADSARGRFTISRDNSKNTLYLQMNSLRAEDTALYYCAKDRQEYSSGWTHDACDIWGQGTMVTVSS
VL: EIVMTQSPATLSVSPGERATLSCRASQNVNNNLAWYQQNPGQAPRLLIFGASTRATGIPARFSGSGSGTEFTLTISSLQSEDFAVYYCQQYNNWPRTFGQGTKLEIK
B14: ADI-41315 (antibody, V domains shown)
VH: EVQLLESGPGLVKPSETLSLTCAVSGGSISNYYWSWIRQPPGKGLEWIAYISYSGTTNYNPSLESRVTISVDTSKNQFSLKLNSVTAADTAVYYCARHEFLVLPDVWGQGTLVTVSS
VL: ETTLTQSPGTLSLSPGERATLSCRASQSVSSTFLAWYQQKPGQAPRLLIYAASSRATGIPDRFSGSGSGTDFTLIISRLEPEDFAVYYCQQYRSSPFSFGPGTKVEIK
B15: ADI-41318 (antibody, V domains shown)
VH: EVQLLESGAEVKKPGSSVRVSCKAFGGTFSSYAFSWVRQAPGQGLEWMGGITPMFGTENYAPNFQGRVTITADKLTTTVYMELSRLRSEDSAVYYCAREGGRLGTTMGAFDMWGQGTMVTVSS
VL: DIRLTQSPSSLSASVGDRVTITCRASHGISSALAWYQQRPGRVPQVLIFHASTLESGVPSRFSGSGSGTDFTLTISSLQPEDFATYYCQQFNSYPYTFGQGTKVEIK

What follows are binders tested against Respiratory Syncytial Virus fusion glycoprotein (RSV F) on RSV-A2 virus (Respiratory Syncytial Virus subtype A (RSV-A2)) (assay: cell-based or functional assay).
For B1, the Neutralization IC50 (RSV subtype A) was > 25 µg/mL.
In the case of B2, the Neutralization IC50 (RSV subtype A) is reported as > 25 µg/mL.
B3 was tested, and the Neutralization IC50 (RSV subtype A) was > 25 µg/mL.
For B4, the Neutralization IC50 (RSV subtype A) was > 25 µg/mL.

What follows are binders tested against RSV postfusion F (postF, F deltaFP) (Respiratory syncytial virus) (assay: BLI, IgG on sensor, 100 nM antigen).
Work on B5 yielded a Kd of 0.521 nM.
With B6 the Kd was 0.414 nM.
With B7 the Kd was 1.97 nM.
Binder B8 has a Kd of 0.591 nM.
Binder B9 has a Kd of 0.426 nM.
In the case of B10, the Kd is reported as 0.331 nM.
B11 was tested, and the Kd was 0.349 nM.
B12 showed a Kd of 0.267 nM.
Work on B13 yielded a Kd of 1.05 nM.
For B14, the Kd was 1.03 nM.
B15 showed a Kd of 35.4 nM.

What follows are binders tested against RSV prefusion F (preF, DS-Cav1) (Respiratory syncytial virus) (assay: BLI, IgG on sensor, 100 nM antigen).
In the case of B5, the Kd is reported as 2.6 nM.
In the case of B6, the Kd is reported as 2.41 nM.
Binder B7 has a Kd of 2.83 nM.
B8 was tested, and the Kd was 3.99 nM.
B9 gave a Kd of 2.47 nM.
B10 was tested, and the Kd was 1.95 nM.
B11 showed a Kd of 2.29 nM.
In the case of B12, the Kd is reported as 1.88 nM.
Binder B13 has a Kd of 3.74 nM.
Binder B14 has a Kd of 2.93 nM.
In the case of B15, the Kd is reported as 426 nM.

Each binder was assayed against RSV postfusion F (postF), F deltaFP (Respiratory Syncytial Virus) (assay: BLI, IgG on anti-human IgG sensor, 100 nM antigen).
For B1, the Kd was 9.87 nM.
B2 showed a Kd of 1.7 nM.
In the case of B3, the Kd is reported as 0.751 nM.
With B4 the Kd was 0.962 nM.
